B1: Lysozyme C, P61626 (parent)
chain: MKALIVLGLVLLSVTVQGKVFERCELARTLKRLGMDGYRGISLANWMCLAKWESGYNTRATNYNAGDRSTDYGIFQINSRYWCNDGKTPGAVNACHLSCSALLQDNIADAVACAKRVVRDPQGIRAWVAWRNRCQNRDVRQYVQGCGV

Variants of: B1
Conditions: Homo sapiens; pH 2.67; Thermal; DSC; glycine 0.05 M; reversible: yes; structure 1LZ1; whole UniProt chain shown
With MKALIVLGLVLLSVTVQGKVFERCELARTLKRLGMDGYRGASLANWMCLAKWESGYNTRATNYNAGDRSTDYGIFQINSRYWCNDGKTPGAVNACHLSCSALLQDNIADAVACAKRVVRDPQGIRAWVAWRNRCQNRDVRQYVQGCGV [I41A] the Tm was 56.2 °C, the “heat capacity change of unfolding” value was 1.51 kcal/mol/K and the “unfolding enthalpy (calorimetric)” value was 98.1 kcal/mol. For the same variant, the “unfolding enthalpy (van 't Hoff)” value was 103 kcal/mol. With MKALIVLGLVLLSVTVQGKVFERCELARTLKRLGMDGYRGISLANWMCLAKWESGYNTRATNYNAGDRSTDYGAFQINSRYWCNDGKTPGAVNACHLSCSALLQDNIADAVACAKRVVRDPQGIRAWVAWRNRCQNRDVRQYVQGCGV [I74A] the Tm was 52.3 °C, the “heat capacity change of unfolding” value was 1.53 kcal/mol/K and the “unfolding enthalpy (calorimetric)” value was 89 kcal/mol. For the same variant, the “unfolding enthalpy (van 't Hoff)” value was 91.4 kcal/mol.

Same assay, conditions: Homo sapiens; pH 2.7; 64.9 °C; Thermal; DSC; glycine 0.05 M; reversible: yes; structure 1LZ1; whole UniProt chain shown
In the case of MKALIVLGLVLLSVTVQGKVFERCELARTLKRLGMDGYRGASLANWMCLAKWESGYNTRATNYNAGDRSTDYGIFQINSRYWCNDGKTPGAVNACHLSCSALLQDNIADAVACAKRVVRDPQGIRAWVAWRNRCQNRDVRQYVQGCGV [I41A], the “ddG of mutation (higher = less stable)” value is reported as 2.54 kcal/mol, the “heat capacity change of unfolding” value is reported as 1.2 kcal/mol/K and the “unfolding enthalpy (calorimetric)” value is reported as 109 kcal/mol. The “unfolding enthalpy (van 't Hoff)” value was 116 kcal/mol. For MKALIVLGLVLLSVTVQGKVFERCELARTLKRLGMDGYRGISLANWMCLAKWESGYNTRATNYNAGDRSTDYGIFQINSRYWCNDGKTPGAVNACHLSCSALLQDNAADAVACAKRVVRDPQGIRAWVAWRNRCQNRDVRQYVQGCGV [I107A], the “ddG of mutation (higher = less stable)” value was 2.7 kcal/mol, the “heat capacity change of unfolding” value was 1.65 kcal/mol/K and the “unfolding enthalpy (calorimetric)” value was 110 kcal/mol. For the same variant, the “unfolding enthalpy (van 't Hoff)” value was 113 kcal/mol. For MKALIVLGLVLLSVTVQGKVFERCELARTLKRLGMDGYRGISLANWMCLAKWESGYNTRATNYNAGDRSTDYGAFQINSRYWCNDGKTPGAVNACHLSCSALLQDNIADAVACAKRVVRDPQGIRAWVAWRNRCQNRDVRQYVQGCGV [I74A], the “ddG of mutation (higher = less stable)” value was 3.71 kcal/mol, the “heat capacity change of unfolding” value was 1.34 kcal/mol/K and the “unfolding enthalpy (calorimetric)” value was 105 kcal/mol. The “unfolding enthalpy (van 't Hoff)” value was 111 kcal/mol.

Same assay, conditions: Homo sapiens; pH 2.7; Thermal; DSC; glycine 0.05 M; reversible: yes; structure 1LZ1; whole UniProt chain shown
With MKALIVLGLVLLSVTVQGKVFERCELARTLKRLGMDGYRGASLANWMCLAKWESGYNTRATNYNAGDRSTDYGIFQINSRYWCNDGKTPGAVNACHLSCSALLQDNIADAVACAKRVVRDPQGIRAWVAWRNRCQNRDVRQYVQGCGV [I41A] the Tm was 56.8 °C, the “change of melting temperature, mutant - wild type (higher = more stable)” value was -8.1 °C and the “heat capacity change of unfolding” value was 1.2 kcal/mol/K. For MKALIVLGLVLLSVTVQGKVFERCELARTLKRLGMDGYRGISLANWMCLAKWESGYNTRATNYNAGDRSTDYGIFQINSRYWCNDGKTPGAVNACHLSCSALLQDNAADAVACAKRVVRDPQGIRAWVAWRNRCQNRDVRQYVQGCGV [I107A], the Tm was 56.2 °C, the “change of melting temperature, mutant - wild type (higher = more stable)” value was -8.7 °C and the “heat capacity change of unfolding” value was 1.65 kcal/mol/K.

Same assay, conditions: Homo sapiens; pH 2.96; Thermal; DSC; glycine 0.05 M; reversible: yes; structure 1LZ1; whole UniProt chain shown
For MKALIVLGLVLLSVTVQGKVFERCELARTLKRLGMDGYRGASLANWMCLAKWESGYNTRATNYNAGDRSTDYGIFQINSRYWCNDGKTPGAVNACHLSCSALLQDNIADAVACAKRVVRDPQGIRAWVAWRNRCQNRDVRQYVQGCGV [I41A], the Tm was 62 °C, the “heat capacity change of unfolding” value was 1.08 kcal/mol/K and the “unfolding enthalpy (calorimetric)” value was 105 kcal/mol. The “unfolding enthalpy (van 't Hoff)” value was 111 kcal/mol. With MKALIVLGLVLLSVTVQGKVFERCELARTLKRLGMDGYRGISLANWMCLAKWESGYNTRATNYNAGDRSTDYGAFQINSRYWCNDGKTPGAVNACHLSCSALLQDNIADAVACAKRVVRDPQGIRAWVAWRNRCQNRDVRQYVQGCGV [I74A] the Tm was 58.5 °C, the “heat capacity change of unfolding” value was 1.6 kcal/mol/K and the “unfolding enthalpy (calorimetric)” value was 96.9 kcal/mol. For the same variant, the “unfolding enthalpy (van 't Hoff)” value was 102 kcal/mol.

Same assay, conditions: Homo sapiens; pH 2.5; Thermal; DSC; glycine 0.05 M; reversible: yes; structure 1LZ1; whole UniProt chain shown
In the case of MKALIVLGLVLLSVTVQGKVFERCELARTLKRLGMDGYRGISLANWMCLAKWESGYNTRATNYNAGDRSTDYGIFQINSRYWCNDGKTPGAVNACHLSCSALLQDNAADAVACAKRVVRDPQGIRAWVAWRNRCQNRDVRQYVQGCGV [I107A], the Tm is reported as 52.6 °C, the “heat capacity change of unfolding” value is reported as 1.72 kcal/mol/K and the “unfolding enthalpy (calorimetric)” value is reported as 89.5 kcal/mol. For the same variant, the “unfolding enthalpy (van 't Hoff)” value was 95.5 kcal/mol. With MKALIVLGLVLLSVTVQGKVFERCELARTLKRLGMDGYRGISLANWMCLAKWESGYNTRATNYNAGDRSTDYGAFQINSRYWCNDGKTPGAVNACHLSCSALLQDNIADAVACAKRVVRDPQGIRAWVAWRNRCQNRDVRQYVQGCGV [I74A] the Tm was 48.2 °C, the “heat capacity change of unfolding” value was 1.22 kcal/mol/K and the “unfolding enthalpy (calorimetric)” value was 82.8 kcal/mol. The “unfolding enthalpy (van 't Hoff)” value was 84 kcal/mol.

Same assay, conditions: Homo sapiens; pH 2.66; Thermal; DSC; glycine 0.05 M; reversible: yes; structure 1LZ1; whole UniProt chain shown
In the case of MKALIVLGLVLLSVTVQGKVFERCELARTLKRLGMDGYRGISLANWMCLAKWESGYNTRATNYNAGDRSTDYGIFQINSRYWCNDGKTPGAVNACHLSCSALLQDNAADAVACAKRVVRDPQGIRAWVAWRNRCQNRDVRQYVQGCGV [I107A], the Tm is reported as 55.4 °C, the “heat capacity change of unfolding” value is reported as 1.39 kcal/mol/K and the “unfolding enthalpy (calorimetric)” value is reported as 93.1 kcal/mol. The “unfolding enthalpy (van 't Hoff)” value was 98.1 kcal/mol.

Same assay, conditions: Homo sapiens; pH 2.8; Thermal; DSC; glycine 0.05 M; reversible: yes; structure 1LZ1; whole UniProt chain shown
For MKALIVLGLVLLSVTVQGKVFERCELARTLKRLGMDGYRGISLANWMCLAKWESGYNTRATNYNAGDRSTDYGIFQINSRYWCNDGKTPGAVNACHLSCSALLQDNAADAVACAKRVVRDPQGIRAWVAWRNRCQNRDVRQYVQGCGV [I107A], the Tm was 57.7 °C, the “heat capacity change of unfolding” value was 1.08 kcal/mol/K and the “unfolding enthalpy (calorimetric)” value was 97.8 kcal/mol. For the same variant, the “unfolding enthalpy (van 't Hoff)” value was 103 kcal/mol.

Same assay, conditions: Homo sapiens; pH 2.95; Thermal; DSC; glycine 0.05 M; reversible: yes; structure 1LZ1; whole UniProt chain shown
In the case of MKALIVLGLVLLSVTVQGKVFERCELARTLKRLGMDGYRGISLANWMCLAKWESGYNTRATNYNAGDRSTDYGIFQINSRYWCNDGKTPGAVNACHLSCSALLQDNAADAVACAKRVVRDPQGIRAWVAWRNRCQNRDVRQYVQGCGV [I107A], the Tm is reported as 61.1 °C, the “heat capacity change of unfolding” value is reported as 1.67 kcal/mol/K and the “unfolding enthalpy (calorimetric)” value is reported as 103 kcal/mol. The “unfolding enthalpy (van 't Hoff)” value was 108 kcal/mol.

Same assay, conditions: Homo sapiens; pH 3.09; Thermal; DSC; glycine 0.05 M; reversible: yes; structure 1LZ1; whole UniProt chain shown
In the case of MKALIVLGLVLLSVTVQGKVFERCELARTLKRLGMDGYRGISLANWMCLAKWESGYNTRATNYNAGDRSTDYGIFQINSRYWCNDGKTPGAVNACHLSCSALLQDNAADAVACAKRVVRDPQGIRAWVAWRNRCQNRDVRQYVQGCGV [I107A], the Tm is reported as 62.9 °C, the “heat capacity change of unfolding” value is reported as 1.51 kcal/mol/K and the “unfolding enthalpy (calorimetric)” value is reported as 106 kcal/mol. The “unfolding enthalpy (van 't Hoff)” value was 110 kcal/mol.

Same assay, conditions: Homo sapiens; pH 2.73; Thermal; DSC; glycine 0.05 M; reversible: yes; structure 1LZ1; whole UniProt chain shown
In the case of MKALIVLGLVLLSVTVQGKVFERCELARTLKRLGMDGYRGISLANWMCLAKWESGYNTRATNYNAGDRSTDYGGFQINSRYWCNDGKTPGAVNACHLSCSALLQDNIADAVACAKRVVRDPQGIRAWVAWRNRCQNRDVRQYVQGCGV [I74G], the Tm is reported as 62.7 °C.

Same assay, conditions: Homo sapiens; pH 2.81; Thermal; DSC; glycine 0.05 M; reversible: yes; structure 1LZ1; whole UniProt chain shown
With MKALIVLGLVLLSVTVQGKVFERCELARTLKRLGMDGYRGISLANWMCLAKWESGYNTRATNYNAGDRSTDYGAFQINSRYWCNDGKTPGAVNACHLSCSALLQDNIADAVACAKRVVRDPQGIRAWVAWRNRCQNRDVRQYVQGCGV [I74A] the Tm was 54.2 °C, the “heat capacity change of unfolding” value was 1.46 kcal/mol/K and the “unfolding enthalpy (calorimetric)” value was 90.7 kcal/mol. For the same variant, the “unfolding enthalpy (van 't Hoff)” value was 92.1 kcal/mol.

Same assay, conditions: Homo sapiens; pH 3.08; Thermal; DSC; glycine 0.05 M; reversible: yes; structure 1LZ1; whole UniProt chain shown
In the case of MKALIVLGLVLLSVTVQGKVFERCELARTLKRLGMDGYRGISLANWMCLAKWESGYNTRATNYNAGDRSTDYGAFQINSRYWCNDGKTPGAVNACHLSCSALLQDNIADAVACAKRVVRDPQGIRAWVAWRNRCQNRDVRQYVQGCGV [I74A], the Tm is reported as 60.2 °C, the “heat capacity change of unfolding” value is reported as 1.44 kcal/mol/K and the “unfolding enthalpy (calorimetric)” value is reported as 98.8 kcal/mol. For the same variant, the “unfolding enthalpy (van 't Hoff)” value was 102 kcal/mol.

Source: FireProtDB (doi:10.1006/jmbi.1997.1365)
